Data taken from doi:10.1101/2022.01.16.476467.

Molecular target: CASK_CAMK domain (residues 1-345) (Mus musculus) (UniProt O70589)
Assay: ITC

Substance: Caskin1 CID L378T (domain or fragment)
- fold decrease of the interaction against wild-type Caskin1: 9 fold

Substance: Caskin1 CID L378T/R379H (domain or fragment)
- fold decrease of the binding against wild-type Caskin1: 40 fold

Substance: LiprinA2 CID G977E and H983R (domain or fragment)
- fold increase in the binding affinity against wild-type LiprinA2: 9 fold

Substance: reported Caskin1 peptide
- Kd: 6.94 µM
- stoichiometry N: 1
